# From patent US20210403576A1 (HELIXMITH, published 2021)
# What was measured:
# [1] = biological target: c-Met protein receptors on HUVEC (human, UniProt P08581 25-1390); experiment: cell-based or functional assay
# [2] = biological target: T1, human c-Met (Sino Biological) (human, UniProt P08581 25-932, limits assumed); experiment: derived from the Biacore KD, normalised to VH0/Vk0
# T1 construct: Analyte in the Biacore assay; also called antigen (c-Met); printed as "human c-Met antibody (Sino Biological, Beijing, China)"
# Procedure: (§1) The candidate antibodies selected in Example 4 were measured for binding affinity for the antigen (c-Met) with the aid of Biacore. […] The anti-c-Met antibodies to be analyzed were immobilized on Protein A CM5 chips (GE Healthcare, Little Chalfont, UK) through which human c-Met antibody (Sino Biological, Beijing, China) with various concentrations ranging 0.15 to 2 nM was allowed to pass, thereby acquiring sensorgrams. On the basis of the acquired sensorgrams, association constants kₒₙ and dissociation constants koff were measured to calculate Ko value, the ratio koff/kₒₙ.
# (§2) In order to select a final candidate group from the 21 candidate antibodies selected in Example 4, comparison was made according to criteria specified into expression level, binding affinity for antigen, thermal stability, and biopotency. As a rule, the expression level is considered to be the most important index when time and cost are taken into consideration from a point of view of production. […] Thereafter, degrees of improvement in each of the remaining candidate antibodies compared to the reference antibody (VH0/Vk0) were digitized with regard to the selected indices. For normalization, analysis index measurements for individual candidate antibodies were divided by average values to give ratios (index 1) which were in turn divided by the measurement for the antibody VH0/Vk0 (index 2) (Tables 6 to 9). In addition, the measurements for the four indices were multiplied for comprehensive comparison of the four indices of the candidate antibodies. The final results (index 3) are listed in a descending order in Table 10.
# [3] = biological target: T1, human c-Met (Sino Biological); experiment: derived from the Biacore KD, printed 'Average' 3.52 x10^-10 M divided by the KD
# Procedure: as §1, §2
# [4] = biological target: T1, human c-Met (Sino Biological); experiment: SPR (Biacore T200), IgG captured on Protein A CM5 chip, c-Met 0.15-2 nM as analyte
# Procedure: as §1
# c-Met protein receptors on HUVEC, sequence (P08581 25-1390): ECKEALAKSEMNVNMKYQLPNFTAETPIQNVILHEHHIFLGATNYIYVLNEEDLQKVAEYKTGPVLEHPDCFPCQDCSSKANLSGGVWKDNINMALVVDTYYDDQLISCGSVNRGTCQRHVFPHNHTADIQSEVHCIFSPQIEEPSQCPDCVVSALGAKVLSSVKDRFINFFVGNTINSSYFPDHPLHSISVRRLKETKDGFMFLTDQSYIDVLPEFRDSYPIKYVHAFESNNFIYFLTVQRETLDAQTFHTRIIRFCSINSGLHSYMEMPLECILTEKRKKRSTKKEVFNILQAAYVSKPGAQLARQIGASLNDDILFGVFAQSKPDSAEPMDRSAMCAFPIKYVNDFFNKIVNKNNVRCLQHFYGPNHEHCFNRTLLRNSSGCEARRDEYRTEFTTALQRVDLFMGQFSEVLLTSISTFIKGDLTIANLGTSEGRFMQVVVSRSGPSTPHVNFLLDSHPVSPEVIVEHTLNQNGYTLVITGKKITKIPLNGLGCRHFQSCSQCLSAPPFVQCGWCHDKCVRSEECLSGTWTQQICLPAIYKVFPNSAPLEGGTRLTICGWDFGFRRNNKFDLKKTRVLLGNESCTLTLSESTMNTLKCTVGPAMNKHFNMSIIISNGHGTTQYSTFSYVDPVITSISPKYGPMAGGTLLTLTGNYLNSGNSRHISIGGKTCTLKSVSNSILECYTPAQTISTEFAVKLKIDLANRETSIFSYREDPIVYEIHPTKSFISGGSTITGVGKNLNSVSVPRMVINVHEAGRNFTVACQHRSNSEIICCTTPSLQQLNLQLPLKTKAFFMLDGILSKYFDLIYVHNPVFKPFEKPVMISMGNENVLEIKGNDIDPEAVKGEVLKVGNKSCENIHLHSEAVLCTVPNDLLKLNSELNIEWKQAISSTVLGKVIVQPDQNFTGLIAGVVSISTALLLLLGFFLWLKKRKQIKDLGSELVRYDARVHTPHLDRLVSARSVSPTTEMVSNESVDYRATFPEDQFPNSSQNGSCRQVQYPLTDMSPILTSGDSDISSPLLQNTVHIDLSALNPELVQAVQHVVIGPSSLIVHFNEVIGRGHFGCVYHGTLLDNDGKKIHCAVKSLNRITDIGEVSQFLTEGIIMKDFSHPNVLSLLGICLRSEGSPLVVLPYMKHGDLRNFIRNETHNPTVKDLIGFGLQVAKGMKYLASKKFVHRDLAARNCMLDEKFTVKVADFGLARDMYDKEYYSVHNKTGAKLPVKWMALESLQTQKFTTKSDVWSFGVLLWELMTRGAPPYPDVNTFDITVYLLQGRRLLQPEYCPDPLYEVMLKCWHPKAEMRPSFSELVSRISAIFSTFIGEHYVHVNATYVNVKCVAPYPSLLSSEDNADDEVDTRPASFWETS
# T1 sequence (P08581 25-932 limits assumed): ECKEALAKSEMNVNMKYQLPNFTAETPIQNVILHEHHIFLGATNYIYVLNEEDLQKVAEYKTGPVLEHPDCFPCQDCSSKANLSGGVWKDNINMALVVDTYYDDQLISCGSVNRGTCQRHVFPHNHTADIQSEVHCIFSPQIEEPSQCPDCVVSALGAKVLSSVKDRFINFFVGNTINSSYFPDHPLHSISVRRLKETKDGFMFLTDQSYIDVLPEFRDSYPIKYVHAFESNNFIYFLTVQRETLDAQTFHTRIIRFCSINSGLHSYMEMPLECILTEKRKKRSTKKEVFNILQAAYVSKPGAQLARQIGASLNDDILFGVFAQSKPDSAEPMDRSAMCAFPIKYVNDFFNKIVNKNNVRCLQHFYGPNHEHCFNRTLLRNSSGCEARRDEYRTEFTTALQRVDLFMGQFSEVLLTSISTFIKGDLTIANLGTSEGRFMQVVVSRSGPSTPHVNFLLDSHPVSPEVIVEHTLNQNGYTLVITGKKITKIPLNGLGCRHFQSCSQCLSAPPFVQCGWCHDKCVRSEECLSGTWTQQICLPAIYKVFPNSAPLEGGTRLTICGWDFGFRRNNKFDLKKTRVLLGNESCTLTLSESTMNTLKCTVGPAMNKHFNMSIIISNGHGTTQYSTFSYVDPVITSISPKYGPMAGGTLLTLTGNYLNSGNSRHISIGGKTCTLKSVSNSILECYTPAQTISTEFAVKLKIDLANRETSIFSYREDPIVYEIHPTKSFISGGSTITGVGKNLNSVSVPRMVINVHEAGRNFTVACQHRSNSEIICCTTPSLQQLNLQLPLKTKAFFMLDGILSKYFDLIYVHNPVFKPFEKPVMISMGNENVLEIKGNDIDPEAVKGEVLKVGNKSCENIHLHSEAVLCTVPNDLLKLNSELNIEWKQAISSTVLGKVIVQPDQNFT
binder,measurement,setting,value
"VH4/Vk2 (antibody, IgG1, V domains shown, Full IgG1/kappa expressed in HEK 293 EBNA cells) VH: QVQLVQSGAEVKKPGSSVKVSCQGSGYSFPTHWITWVRQAPGQGLEWMGTIDPTDSYNFYGPSFQGRVTITADSSTSTAYMELSSLRSEDTAMYYCARDGNYYDSRGYYYDTFDMWGQGTLVTVSS VL: DIQMTQSPSSLSASVGDRVTITCRASQGISTYLAWYQQKPGKAPKLLIYSASTLESGVPSRFSGSGSGTDFTLTISSLQPEDFATYYCQQADSFPLTFGGGTKVEIK","Index 1 (Relative Migration divided by the Average 157.5), HUVEC migration assay",[1],1.13
same,"Index 2 (Relative Migration relative to VH0/Vk0), HUVEC migration assay",[1],1.19
same,"Relative Migration (%), HUVEC migration assay, 90 ng/ml",[1],177%
same,"Index 2 (binding affinity, inverse KD relative to VH0/Vk0)",[2],1.23
same,"Index 1 (binding affinity, inverse KD relative to the Average 3.52)",[3],0.832
same,Kd,[4],0.423 nM
same,Relative KD to VMDO2 VH0/Vk0,[4],0.81
"VH5/Vk4 (antibody, IgG1, V domains shown, Full IgG1/kappa expressed in HEK 293 EBNA cells) VH: QVQLVQSGAEVKKPGSSVKVSCQGSGYSFPTHWITWVRQAPGQGLEWMGTIDPTDSYNFYGPSFQGRVTITADSSTSTAYMELSSLRSEDTAVYYCARDGNYYDSRGYYYDTFDMWGQGTLVTVSS VL: EIQMTQSPGTLSLSPGERATLSCRASQGISTYLAWYQQKPGQAPRLLIYSASTLESGVPDRFSGSGSGTDFTLTISRLEPEDFATYYCQQADSFPLTFGGGTKVEIK",Kd,[4],0.349 nM
same,Relative KD to VMDO2 VH0/Vk0,[4],0.67
"VH5/Vk5 (antibody, IgG1, V domains shown, Full IgG1/kappa expressed in HEK 293 EBNA cells) VH: QVQLVQSGAEVKKPGSSVKVSCQGSGYSFPTHWITWVRQAPGQGLEWMGTIDPTDSYNFYGPSFQGRVTITADSSTSTAYMELSSLRSEDTAVYYCARDGNYYDSRGYYYDTFDMWGQGTLVTVSS VL: EIVLTQSPGTLSLSPGERATLSCRASQGISTYLAWYQQKPGQAPRLLIYSASTLESGIPDRFSGSGSGTDFTLTISRLEPEDFATYYCQQADSFPLTFGGGTKVEIK",Kd,[4],0.506 nM
same,Relative KD to VMDO2 VH0/Vk0,[4],0.97
"VH6/Vk5 (antibody, IgG1, V domains shown, Full IgG1/kappa expressed in HEK 293 EBNA cells) VH: QVQLVQSGAEVKKPGSSVKVSCKASGYSFPTHWITWVRQAPGQGLEWMGTIDPTDSYNFYGPSFQGRVTITADKSTSTAYMELSSLRSEDTAVYYCARDGNYYDSRGYYYDTFDMWGQGTLVTVSS VL: EIVLTQSPGTLSLSPGERATLSCRASQGISTYLAWYQQKPGQAPRLLIYSASTLESGIPDRFSGSGSGTDFTLTISRLEPEDFATYYCQQADSFPLTFGGGTKVEIK",Kd,[4],0.557 nM
same,Relative KD to VMDO2 VH0/Vk0,[4],1.07
"VH5/Vk3 (antibody, IgG1, V domains shown, Full IgG1/kappa expressed in HEK 293 EBNA cells) VH: QVQLVQSGAEVKKPGSSVKVSCQGSGYSFPTHWITWVRQAPGQGLEWMGTIDPTDSYNFYGPSFQGRVTITADSSTSTAYMELSSLRSEDTAVYYCARDGNYYDSRGYYYDTFDMWGQGTLVTVSS VL: DIQMTQSPGFLSLSPGERATLSCRASQGISTYLAWYQQKPGQAPRLLIYSASTLESGVPDRFSGSGSGTDFTLTISRLEPEDFATYYCQQADSFPLTFGGGTKVEIK",Kd,[4],0.402 nM
same,Relative KD to VMDO2 VH0/Vk0,[4],0.77
"VH5/Vk0 (antibody, IgG1, V domains shown, Full IgG1/kappa expressed in HEK 293 EBNA cells) VH: QVQLVQSGAEVKKPGSSVKVSCQGSGYSFPTHWITWVRQAPGQGLEWMGTIDPTDSYNFYGPSFQGRVTITADSSTSTAYMELSSLRSEDTAVYYCARDGNYYDSRGYYYDTFDMWGQGTLVTVSS VL: DIQMTQSPSFLSASVGDRVTITCRASQGISTYLAWYQQKPGTAPKLLIYSASTLESGVPSRFSGSGSGTDFTLTISSLQPEDSATYYCQQADSFPLTFGGGTKVEIK","Index 1 (Relative Migration divided by the Average 157.5), HUVEC migration assay",[1],0.813
same,"Index 2 (Relative Migration relative to VH0/Vk0), HUVEC migration assay",[1],0.855
same,"Relative Migration (%), HUVEC migration assay, 90 ng/ml",[1],128%
same,"Index 2 (binding affinity, inverse KD relative to VH0/Vk0)",[2],1.48
same,"Index 1 (binding affinity, inverse KD relative to the Average 3.52)",[3],1
same,Kd,[4],0.352 nM
same,Relative KD to VMDO2 VH0/Vk0,[4],0.68
"VH4/Vk4 (antibody, IgG1, V domains shown, Full IgG1/kappa expressed in HEK 293 EBNA cells) VH: QVQLVQSGAEVKKPGSSVKVSCQGSGYSFPTHWITWVRQAPGQGLEWMGTIDPTDSYNFYGPSFQGRVTITADSSTSTAYMELSSLRSEDTAMYYCARDGNYYDSRGYYYDTFDMWGQGTLVTVSS VL: EIQMTQSPGTLSLSPGERATLSCRASQGISTYLAWYQQKPGQAPRLLIYSASTLESGVPDRFSGSGSGTDFTLTISRLEPEDFATYYCQQADSFPLTFGGGTKVEIK",Kd,[4],0.372 nM
same,Relative KD to VMDO2 VH0/Vk0,[4],0.72
"VH4/Vk3 (antibody, IgG1, V domains shown, Full IgG1/kappa expressed in HEK 293 EBNA cells) VH: QVQLVQSGAEVKKPGSSVKVSCQGSGYSFPTHWITWVRQAPGQGLEWMGTIDPTDSYNFYGPSFQGRVTITADSSTSTAYMELSSLRSEDTAMYYCARDGNYYDSRGYYYDTFDMWGQGTLVTVSS VL: DIQMTQSPGFLSLSPGERATLSCRASQGISTYLAWYQQKPGQAPRLLIYSASTLESGVPDRFSGSGSGTDFTLTISRLEPEDFATYYCQQADSFPLTFGGGTKVEIK",Kd,[4],0.422 nM
same,Relative KD to VMDO2 VH0/Vk0,[4],0.81
"VH3/Vk2 (antibody, IgG1, V domains shown, Full IgG1/kappa expressed in HEK 293 EBNA cells) VH: QVQLVQSGAEVKKPGSSVKVSCQGSGYSFPTHWITWVRQAPGQGLEWMGTIDPTDSYNFYGPSFQGRVTITADSSTSTAYLQWSSLKASDTAMYYCARDGNYYDSRGYYYDTFDMWGQGTLVTVSS VL: DIQMTQSPSSLSASVGDRVTITCRASQGISTYLAWYQQKPGKAPKLLIYSASTLESGVPSRFSGSGSGTDFTLTISSLQPEDFATYYCQQADSFPLTFGGGTKVEIK","Index 1 (Relative Migration divided by the Average 157.5), HUVEC migration assay",[1],1.04
same,"Index 2 (Relative Migration relative to VH0/Vk0), HUVEC migration assay",[1],1.09
same,"Relative Migration (%), HUVEC migration assay, 90 ng/ml",[1],164%
same,"Index 2 (binding affinity, inverse KD relative to VH0/Vk0)",[2],1.09
same,"Index 1 (binding affinity, inverse KD relative to the Average 3.52)",[3],0.738
same,Kd,[4],0.477 nM
same,Relative KD to VMDO2 VH0/Vk0,[4],0.92
"VH4/Vk0 (antibody, IgG1, V domains shown, Full IgG1/kappa expressed in HEK 293 EBNA cells) VH: QVQLVQSGAEVKKPGSSVKVSCQGSGYSFPTHWITWVRQAPGQGLEWMGTIDPTDSYNFYGPSFQGRVTITADSSTSTAYMELSSLRSEDTAMYYCARDGNYYDSRGYYYDTFDMWGQGTLVTVSS VL: DIQMTQSPSFLSASVGDRVTITCRASQGISTYLAWYQQKPGTAPKLLIYSASTLESGVPSRFSGSGSGTDFTLTISSLQPEDSATYYCQQADSFPLTFGGGTKVEIK","Index 1 (Relative Migration divided by the Average 157.5), HUVEC migration assay",[1],0.773
same,"Index 2 (Relative Migration relative to VH0/Vk0), HUVEC migration assay",[1],0.812
same,"Relative Migration (%), HUVEC migration assay, 90 ng/ml",[1],122%
same,"Index 2 (binding affinity, inverse KD relative to VH0/Vk0)",[2],1.32
same,"Index 1 (binding affinity, inverse KD relative to the Average 3.52)",[3],0.891
same,Kd,[4],0.395 nM
same,Relative KD to VMDO2 VH0/Vk0,[4],0.76
"VH6/Vk3 (antibody, IgG1, V domains shown, Full IgG1/kappa expressed in HEK 293 EBNA cells) VH: QVQLVQSGAEVKKPGSSVKVSCKASGYSFPTHWITWVRQAPGQGLEWMGTIDPTDSYNFYGPSFQGRVTITADKSTSTAYMELSSLRSEDTAVYYCARDGNYYDSRGYYYDTFDMWGQGTLVTVSS VL: DIQMTQSPGFLSLSPGERATLSCRASQGISTYLAWYQQKPGQAPRLLIYSASTLESGVPDRFSGSGSGTDFTLTISRLEPEDFATYYCQQADSFPLTFGGGTKVEIK",Kd,[4],0.431 nM
same,Relative KD to VMDO2 VH0/Vk0,[4],0.83
"VH6/Vk4 (antibody, IgG1, V domains shown, Full IgG1/kappa expressed in HEK 293 EBNA cells) VH: QVQLVQSGAEVKKPGSSVKVSCKASGYSFPTHWITWVRQAPGQGLEWMGTIDPTDSYNFYGPSFQGRVTITADKSTSTAYMELSSLRSEDTAVYYCARDGNYYDSRGYYYDTFDMWGQGTLVTVSS VL: EIQMTQSPGTLSLSPGERATLSCRASQGISTYLAWYQQKPGQAPRLLIYSASTLESGVPDRFSGSGSGTDFTLTISRLEPEDFATYYCQQADSFPLTFGGGTKVEIK",Kd,[4],0.391 nM
same,Relative KD to VMDO2 VH0/Vk0,[4],0.75
"VH5/Vk2 (antibody, IgG1, V domains shown, Full IgG1/kappa expressed in HEK 293 EBNA cells) VH: QVQLVQSGAEVKKPGSSVKVSCQGSGYSFPTHWITWVRQAPGQGLEWMGTIDPTDSYNFYGPSFQGRVTITADSSTSTAYMELSSLRSEDTAVYYCARDGNYYDSRGYYYDTFDMWGQGTLVTVSS VL: DIQMTQSPSSLSASVGDRVTITCRASQGISTYLAWYQQKPGKAPKLLIYSASTLESGVPSRFSGSGSGTDFTLTISSLQPEDFATYYCQQADSFPLTFGGGTKVEIK","Index 1 (Relative Migration divided by the Average 157.5), HUVEC migration assay",[1],1.12
same,"Index 2 (Relative Migration relative to VH0/Vk0), HUVEC migration assay",[1],1.18
same,"Relative Migration (%), HUVEC migration assay, 90 ng/ml",[1],176%
same,"Index 2 (binding affinity, inverse KD relative to VH0/Vk0)",[2],1.24
same,"Index 1 (binding affinity, inverse KD relative to the Average 3.52)",[3],0.838
same,Kd,[4],0.42 nM
same,Relative KD to VMDO2 VH0/Vk0,[4],0.81
"VH2/Vk5 (antibody, IgG1, V domains shown, Full IgG1/kappa expressed in HEK 293 EBNA cells) VH: EVQLVQSGAEVKKPGESLKISCKGSGYSFPTHWITWVRQMPGKGLEWMGTIDPTDSYNFYGPSFQGQVTISADKSISTAYLQWSSLKASDTAMYYCARDGNYYDSRGYYYDTFDMWGQGTLVTVSS VL: EIVLTQSPGTLSLSPGERATLSCRASQGISTYLAWYQQKPGQAPRLLIYSASTLESGIPDRFSGSGSGTDFTLTISRLEPEDFATYYCQQADSFPLTFGGGTKVEIK",Kd,[4],0.685 nM
same,Relative KD to VMDO2 VH0/Vk0,[4],1.32
